Data: patent US20190264194A1 (published 2019)

T1: human C-reactive protein (human, UniProt P02741 19-224)
T1 construct: Biotinylated or labelled with Alexa Fluor 488; also called CRP; C-RP
T1 sequence (looked up): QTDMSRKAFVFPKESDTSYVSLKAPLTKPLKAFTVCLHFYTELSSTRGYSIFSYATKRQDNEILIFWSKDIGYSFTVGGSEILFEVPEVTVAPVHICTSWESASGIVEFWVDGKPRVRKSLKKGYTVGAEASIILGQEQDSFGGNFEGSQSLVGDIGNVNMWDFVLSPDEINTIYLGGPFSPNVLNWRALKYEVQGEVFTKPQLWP


Biological target: T1, human C-reactive protein
Experiment: apparent whole-cell KD, flow cytometry with CRP-Alexa Fluor 488
Description: (§1) To obtain equilibrium binding curves, cells were labeled over a range of concentrations, e.g., about 0.1 to about 200 nM, of fluorescently conjugated target proteins (streptavidin-phycoerythrin or CRP-Alexa Fluor® 488) and analyzed by flow cytometry, as above. The corresponding mean fluorescence versus concentration data were fit to a monovalent binding isotherm to obtain the apparent KD. Dissociation rates of streptavidin-binding clones were measured in the presence of about 1 to about 2 μM biotin. Cells were labeled with 50 nM streptavidin-phycoerythrin for 30 minutes at room temperature. The cells were then pelleted, resuspended in PBS with biotin, and immediately analyzed by flow cytometry. Fluorescence data were collected continuously for about five minutes. The dissociation rate constants were then determined as described previously. See Daugherty, P. S., et al. (1998) Protein Eng. 11(9):825-832, which is herein incorporated by reference.

Row | Binder | Kd [nM]
1 | FPIYNQRGFITLASP (Insert only) [CRP-2] | 3
2 | YPPRFQYYRFYYRGP (Insert only) [CRP-10] | 5
3 | MIFNSRGFLSLMSSG (Insert only) [CRP-6] | 8

Biological target: T2, streptavidin (UniProt P22629 37-163, limits assumed)
T2 construct: Used as phycoerythrin conjugate or on coated beads; also called SA; streptavidin-phycoerythrin
Experiment: selection from the XCCX4CX7CX library displayed in loop 2 of OmpX

Row | Binder | binding result
4 | ICCHPQVCSGLNRFRCG [SEQ ID NO 270] | binds
5 | LCCHPQNCVSFRHVECR [SEQ ID NO 274] | binds
6 | ACCHPQVCVMALPYHCL [SEQ ID NO 272] | binds
7 | YCCHPQVCFLGHRAACP [SEQ ID NO 267] | binds
8 | ICCHPQWCGLTVWWPCK [SEQ ID NO 275] | binds
9 | WCCHPQVCSLSLAYKCQ [SEQ ID NO 268] | binds
10 | WCCHPQVCHRAMVRNCI [SEQ ID NO 271] | binds
11 | ICCHPQVCAWNRVFLCK [SEQ ID NO 269] | binds
12 | LCCHPQVCASAGYYACY [SEQ ID NO 273] | binds

Biological target: T3, human serum albumin (human, UniProt P02768 25-609)
T3 construct: Biotinylated or FITC-conjugated; also called HSA
Experiment: clones isolated by MACS and FACS from the E. coli OmpA loop 1 15-mer library

Row | Binder | binding result
13 | RHLYCWTWRWCHFKD (Insert only) [HSA-2] | binds
14 | SYISTWLNFLFCGQS (Insert only) [HSA-3] | binds
15 | NPFCSWYRWRNWCTK (Insert only) [HSA-1] | binds
16 | NNYSAWLRCLLRAYS (Insert only) [HSA-4] | binds

Biological target: T1, human C-reactive protein
Experiment: as above

Row | Binder | binding result
17 | VRTWNDRGFQQSVDR (Insert only) [CRP-5] | binds
18 | PYLNARGFSVTREQI (Insert only) [CRP-9] | binds
19 | WTKLKNSRGFELQLD (Insert only) [CRP-8] | binds
20 | TFMPSYYRSWGPPPT (Insert only) [CRP-12] | binds
21 | HMRWNTRGFLYPAMS (Insert only) [CRP-3] | binds
22 | TTCKYYLSCRWRKDL (Insert only) [CRP-13] | binds
23 | LMNWRGFMVPRESPK (Insert only) [CRP-7] | binds
24 | TDFLSYYRVYRTPLQ (Insert only) [CRP-11] | binds
25 | RYIMNHRGFYIFVPR (Insert only) [CRP-4] | binds

Biological target: T2, streptavidin
Experiment: whole-cell dissociation by flow cytometry, 1-2 uM biotin as competitor
Description: The apparent binding affinities of a subset of the selected peptides were determined using flow cytometric analysis. […] See Daugherty, P. S., et al. (1998) Protein Eng. 11(9):825-832, which is herein incorporated by reference. […] See Daugherty, P. S., et al. (1998) Protein Eng. 11(9):825-832; and Feldhaus, M. J., et al. (2003) Nat. Biotechnol. 21(2): 163-170, which are herein incorporated by reference. […] Apparent dissociation rate constants (kdiss) were determined for streptavidin, using about 1 to about 2 μM biotin as a competitor to prevent re-binding.
as §1

Row | Binder | koff [s⁻¹]
26 | IMMECFYVCTIANTQ (Insert only) [SA-8] | ~0.01
27 | YWVCMNVCMYYTARQ (Insert only) [SA-5] | ~0.001
28 | LPVWCVMHVCLTSSR (Insert only) [SA-6] | ~0.001
29 | ADTICWYVCTISVHA (Insert only) [SA-11] | ~0.01
30 | SITICWYTCMVQKTA (Insert only) [SA-10] | ~0.01
31 | RLEICQNVCYYLGTL (Insert only; also called SA-1 pep) [SA-1] | ~0.001
32 | VTSLCMNVCYSLTTY (Insert only) [SA-4] | ~0.001
33 | ICSYVMYTTCFLRVY (Insert only) [SA-2] | ~0.001

Biological target: T1, human C-reactive protein
Experiment: selection from the E. coli display library
Description: The library was first depleted of streptavidin binding peptides by incubation with streptavidin coated microbeads, e.g., from Qiagen, Inc. (Valencia, Calif.). Then the library was incubated with biotinylated human C-reactive protein at 10 nM final concentration, and two rounds of magnetic selection were used to enrich CRP binding peptides. […] Equilibrium binding affinities were measured in the whole cell format, by determining cell fluorescence at various concentrations of target CRP. See e.g. FIG. 17.

Row | Binder | binding result
34 | LMNWRGFMVPRESPK [SEQ ID NO 251] | binds
35 | RYIMNHRGFYIFVPR [SEQ ID NO 250] | binds
36 | PYLNARGFSVTREQI [SEQ ID NO 252] | binds
37 | TDFLSYYRVYRTPLQ [SEQ ID NO 248] | binds
38 | WTKLKNSRGFELQLD [SEQ ID NO 254] | binds
39 | TFMPSYYRSWGPPPT [SEQ ID NO 249] | binds
40 | TTCKYYLSCRWRKDL [SEQ ID NO 246] | binds

Biological target: T2, streptavidin
Experiment: apparent whole-cell KD, flow cytometry with streptavidin-phycoerythrin
Description: as §1

Row | Binder | Kd [nM]
41 | RLEICQNVCYYLGTL (Insert only; also called SA-1 pep) [SA-1] | 10
42 | ICSYVMYTTCFLRVY (Insert only) [SA-2] | 8

Biological target: T2, streptavidin
Experiment: selection from the X4CX3CX4 library displayed in loop 2 of OmpX

Row | Binder | binding result
43 | SKWICQNVCYPGL [SEQ ID NO 279] | binds
44 | KALVCQNVCYTMS [SEQ ID NO 278] | binds
45 | GTLVCMNFCYLSK [SEQ ID NO 280] | binds
46 | CMIICQNVCYRKC [SEQ ID NO 277] | binds
47 | PTLICMNVCFYDQ [SEQ ID NO 281] | binds
48 | QSLVCQNVCWMRE [SEQ ID NO 276] | binds
49 | TRLICANLCWYAE [SEQ ID NO 284] | binds
50 | TYSWCANVCMHYS [SEQ ID NO 283] | binds
51 | SHWFCVNVCFRIQ [SEQ ID NO 282] | binds
